The sequences below were run against EPHB1 (UniProt P54762) (assay: phosphorylation enrichment, bacterial display (enrichment ratio); higher = better substrate or ligand; peptides without Tyr show the background).
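Note: 11-residue human phosphosite peptides and single-mutation variants displayed on the E. coli surface, counted by deep sequencing, each peptide's frequency after selection divided by its frequency in the unselected input library; frequency after pTyr selection over input frequency; kinase dosed for 20-30% of maximal phosphorylation in three min.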

EPHB1, sequence (P54762 whole entry, looked up): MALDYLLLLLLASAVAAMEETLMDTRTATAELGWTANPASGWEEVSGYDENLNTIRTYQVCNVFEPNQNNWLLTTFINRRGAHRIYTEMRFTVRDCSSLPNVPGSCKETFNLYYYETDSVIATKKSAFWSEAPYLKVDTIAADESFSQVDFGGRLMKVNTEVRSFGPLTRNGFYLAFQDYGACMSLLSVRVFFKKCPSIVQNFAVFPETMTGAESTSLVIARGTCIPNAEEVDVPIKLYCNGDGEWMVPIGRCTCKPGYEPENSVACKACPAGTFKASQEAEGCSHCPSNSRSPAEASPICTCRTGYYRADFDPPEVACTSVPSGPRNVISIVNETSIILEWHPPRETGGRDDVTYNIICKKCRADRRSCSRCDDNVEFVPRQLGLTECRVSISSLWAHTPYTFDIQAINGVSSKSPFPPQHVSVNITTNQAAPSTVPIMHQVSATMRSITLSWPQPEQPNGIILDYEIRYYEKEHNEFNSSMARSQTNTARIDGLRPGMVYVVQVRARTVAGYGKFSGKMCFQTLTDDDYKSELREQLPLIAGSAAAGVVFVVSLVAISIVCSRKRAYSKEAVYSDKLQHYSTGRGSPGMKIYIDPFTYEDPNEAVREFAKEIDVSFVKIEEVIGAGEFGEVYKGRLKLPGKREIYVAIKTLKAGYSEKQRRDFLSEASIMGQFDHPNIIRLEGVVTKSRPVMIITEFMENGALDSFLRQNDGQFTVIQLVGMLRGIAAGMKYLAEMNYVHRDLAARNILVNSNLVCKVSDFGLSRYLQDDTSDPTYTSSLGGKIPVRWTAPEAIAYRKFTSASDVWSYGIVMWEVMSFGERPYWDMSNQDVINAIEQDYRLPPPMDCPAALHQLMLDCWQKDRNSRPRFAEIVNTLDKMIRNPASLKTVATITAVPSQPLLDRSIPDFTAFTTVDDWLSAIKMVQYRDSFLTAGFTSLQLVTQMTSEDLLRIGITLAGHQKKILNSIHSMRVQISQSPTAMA

**Q.** With NFADPYRQLPF [CTNND2_Y503_Q507P_YF] as the sequence, how does the phosphorylation enrichment read?
**A.** The phosphorylation enrichment was 0.432.

**Q.** VYAANYYKLLG [ROR2_Y645_D644N] was tested. Which phosphorylation enrichment did it give?
**A.** Its phosphorylation enrichment is 3.1.

**Q.** CQAHGYSCQLI [STK11_Y156_F157S] was tested. Which phosphorylation enrichment did it give?
**A.** The phosphorylation enrichment was 0.568.

**Q.** For GMRHGHGVRQS [JPH2_Y141_Y141H], which phosphorylation enrichment is on record?
**A.** Its phosphorylation enrichment is 0.775.

**Q.** LWPIWYSCHRP [MRGPRX1_Y130_R131S] was tested. Which phosphorylation enrichment did it give?
**A.** The phosphorylation enrichment was 0.83.

**Q.** How did the phosphorylation enrichment turn out when PFFASYPPSPD [GDAP2_Y491_T489A_YF] was run?
**A.** Its phosphorylation enrichment is 0.99.

**Q.** Which phosphorylation enrichment does the source give for CTTSHYNYMCN [TP53_Y234_I232S] here?
**A.** Its phosphorylation enrichment is 0.741.

**Q.** With YIRRDYEACKA [BBS4_Y48_K46R] as the sequence, how does the phosphorylation enrichment read?
**A.** Its phosphorylation enrichment is 0.897.

**Q.** How did the phosphorylation enrichment turn out when SISYDYCRVPM [BST2_Y8_T4I] was run?
**A.** The phosphorylation enrichment was 11.

**Q.** Which phosphorylation enrichment does the source give for LPHVIYCRLWC [SMAD2_Y128_R133C] here?
**A.** Its phosphorylation enrichment is 7.33.

**Q.** Which phosphorylation enrichment does the source give for LHAAAYWNALA [UQCRC2_Y182_R183W] here?
**A.** Its phosphorylation enrichment is 0.419.

**Q.** AGADGYGYLAP [FOXL2_Y186] was tested. Which phosphorylation enrichment did it give?
**A.** The phosphorylation enrichment was 0.387.

**Q.** For PVQAAYKKVVA [HBB_Y131_Q132K], which phosphorylation enrichment is on record?
**A.** The phosphorylation enrichment was 0.545.

**Q.** Which phosphorylation enrichment does the source give for KVIDMYLMGCF [GABRB2_Y308_A304V] here?
**A.** Its phosphorylation enrichment is 0.636.

**Q.** LRFDVYGGENE [STOX1_Y610_E608D_YF] was tested. Which phosphorylation enrichment did it give?
**A.** The phosphorylation enrichment was 0.596.

**Q.** With DTYDPYLDVAL [USP36_Y268] as the sequence, how does the phosphorylation enrichment read?
**A.** Its phosphorylation enrichment is 0.805.

**Q.** With EVVGKYSVHNA [MLH1_Y183_R182K] as the sequence, how does the phosphorylation enrichment read?
**A.** The phosphorylation enrichment was 0.363.

**Q.** Which phosphorylation enrichment does the source give for NSIGNYYKPWF [DHCR24_Y299] here?
**A.** Its phosphorylation enrichment is 14.5.

**Q.** For PNEAVYTKMMT [G6PD_Y401], which phosphorylation enrichment is on record?
**A.** The phosphorylation enrichment was 0.506.

**Q.** How did the phosphorylation enrichment turn out when CTTIHKNFMCN [TP53_Y234_Y234K_YF] was run?
**A.** The phosphorylation enrichment was 0.394.

**Q.** QAEELYFGKMG [YES1_Y159_W158L] was tested. Which phosphorylation enrichment did it give?
**A.** Its phosphorylation enrichment is 0.861.

**Q.** With ESLRSYDVMDV [KCNQ2_Y562_P561S] as the sequence, how does the phosphorylation enrichment read?
**A.** The phosphorylation enrichment was 0.663.

**Q.** How did the phosphorylation enrichment turn out when AIIGIYILRDD [CDH23_Y2949] was run?
**A.** Its phosphorylation enrichment is 0.831.

**Q.** With ESLSSYWESAK [APOC2_Y47] as the sequence, how does the phosphorylation enrichment read?
**A.** The phosphorylation enrichment was 0.527.

**Q.** For EGDGVYTLNDE [HP_Y125_N129D], which phosphorylation enrichment is on record?
**A.** Its phosphorylation enrichment is 0.643.

**Q.** RKVLVYDKLNV [ROR2_Y624_N620K] was tested. Which phosphorylation enrichment did it give?
**A.** Its phosphorylation enrichment is 1.37.

**Q.** AACQHYGVRTC [NR4A2_Y275] was tested. Which phosphorylation enrichment did it give?
**A.** The phosphorylation enrichment was 0.381.

**Q.** For RNFVHYVQGLK [VWF_Y1400_R1399H], which phosphorylation enrichment is on record?
**A.** The phosphorylation enrichment was 0.511.

**Q.** CLEKEYFDQHF [NPC1_Y394_R389C] was tested. Which phosphorylation enrichment did it give?
**A.** The phosphorylation enrichment was 0.581.

**Q.** Which phosphorylation enrichment does the source give for KPLMPCMRFSR [SMARCE1_Y73_Y73C_YF] here?
**A.** Its phosphorylation enrichment is 0.39.

**Q.** How did the phosphorylation enrichment turn out when SDYYAYSPVQE [H6PD_Y449_R453Q] was run?
**A.** The phosphorylation enrichment was 16.4.

**Q.** For AAQNCYKVTNG [TPI1_Y105], which phosphorylation enrichment is on record?
**A.** The phosphorylation enrichment was 0.37.

**Q.** Which phosphorylation enrichment does the source give for RRAVKYLQMVG [AVPR2_Y117_C112R] here?
**A.** The phosphorylation enrichment was 0.815.

What follows are sequences tested on c-Src in the same assay as above.

**Q.** NFADPYRQLPF [CTNND2_Y503_Q507P_YF] was tested. Which phosphorylation enrichment did it give?
**A.** Its phosphorylation enrichment is 0.642.

**Q.** Which phosphorylation enrichment does the source give for VYAANYYKLLG [ROR2_Y645_D644N] here?
**A.** The phosphorylation enrichment was 1.18.

**Q.** Which phosphorylation enrichment does the source give for CQAHGYSCQLI [STK11_Y156_F157S] here?
**A.** The phosphorylation enrichment was 0.435.

**Q.** For GMRHGHGVRQS [JPH2_Y141_Y141H], which phosphorylation enrichment is on record?
**A.** Its phosphorylation enrichment is 0.529.

**Q.** With LWPIWYSCHRP [MRGPRX1_Y130_R131S] as the sequence, how does the phosphorylation enrichment read?
**A.** Its phosphorylation enrichment is 0.601.

**Q.** PFFASYPPSPD [GDAP2_Y491_T489A_YF] was tested. Which phosphorylation enrichment did it give?
**A.** Its phosphorylation enrichment is 0.488.

**Q.** Which phosphorylation enrichment does the source give for CTTSHYNYMCN [TP53_Y234_I232S] here?
**A.** The phosphorylation enrichment was 0.441.

**Q.** How did the phosphorylation enrichment turn out when YIRRDYEACKA [BBS4_Y48_K46R] was run?
**A.** The phosphorylation enrichment was 0.706.

**Q.** How did the phosphorylation enrichment turn out when SISYDYCRVPM [BST2_Y8_T4I] was run?
**A.** The phosphorylation enrichment was 1.17.

**Q.** How did the phosphorylation enrichment turn out when LPHVIYCRLWC [SMAD2_Y128_R133C] was run?
**A.** The phosphorylation enrichment was 4.81.

**Q.** LHAAAYWNALA [UQCRC2_Y182_R183W] was tested. Which phosphorylation enrichment did it give?
**A.** The phosphorylation enrichment was 0.424.

**Q.** For AGADGYGYLAP [FOXL2_Y186], which phosphorylation enrichment is on record?
**A.** The phosphorylation enrichment was 0.372.

**Q.** With PVQAAYKKVVA [HBB_Y131_Q132K] as the sequence, how does the phosphorylation enrichment read?
**A.** The phosphorylation enrichment was 0.687.

**Q.** KVIDMYLMGCF [GABRB2_Y308_A304V] was tested. Which phosphorylation enrichment did it give?
**A.** Its phosphorylation enrichment is 0.593.

**Q.** Which phosphorylation enrichment does the source give for LRFDVYGGENE [STOX1_Y610_E608D_YF] here?
**A.** Its phosphorylation enrichment is 0.528.

**Q.** DTYDPYLDVAL [USP36_Y268] was tested. Which phosphorylation enrichment did it give?
**A.** Its phosphorylation enrichment is 1.43.

**Q.** With EVVGKYSVHNA [MLH1_Y183_R182K] as the sequence, how does the phosphorylation enrichment read?
**A.** The phosphorylation enrichment was 0.438.

**Q.** For NSIGNYYKPWF [DHCR24_Y299], which phosphorylation enrichment is on record?
**A.** The phosphorylation enrichment was 0.69.

**Q.** Which phosphorylation enrichment does the source give for PNEAVYTKMMT [G6PD_Y401] here?
**A.** The phosphorylation enrichment was 4.58.

**Q.** For CTTIHKNFMCN [TP53_Y234_Y234K_YF], which phosphorylation enrichment is on record?
**A.** Its phosphorylation enrichment is 0.448.

**Q.** For QAEELYFGKMG [YES1_Y159_W158L], which phosphorylation enrichment is on record?
**A.** Its phosphorylation enrichment is 3.55.

**Q.** For ESLRSYDVMDV [KCNQ2_Y562_P561S], which phosphorylation enrichment is on record?
**A.** Its phosphorylation enrichment is 0.509.

**Q.** With AIIGIYILRDD [CDH23_Y2949] as the sequence, how does the phosphorylation enrichment read?
**A.** Its phosphorylation enrichment is 2.76.

**Q.** Which phosphorylation enrichment does the source give for ESLSSYWESAK [APOC2_Y47] here?
**A.** The phosphorylation enrichment was 0.392.

**Q.** For EGDGVYTLNDE [HP_Y125_N129D], which phosphorylation enrichment is on record?
**A.** The phosphorylation enrichment was 3.79.

**Q.** RKVLVYDKLNV [ROR2_Y624_N620K] was tested. Which phosphorylation enrichment did it give?
**A.** Its phosphorylation enrichment is 1.82.

**Q.** With AACQHYGVRTC [NR4A2_Y275] as the sequence, how does the phosphorylation enrichment read?
**A.** Its phosphorylation enrichment is 0.408.

**Q.** RNFVHYVQGLK [VWF_Y1400_R1399H] was tested. Which phosphorylation enrichment did it give?
**A.** Its phosphorylation enrichment is 0.583.

**Q.** Which phosphorylation enrichment does the source give for CLEKEYFDQHF [NPC1_Y394_R389C] here?
**A.** The phosphorylation enrichment was 0.585.

**Q.** How did the phosphorylation enrichment turn out when KPLMPCMRFSR [SMARCE1_Y73_Y73C_YF] was run?
**A.** Its phosphorylation enrichment is 0.469.

**Q.** For SDYYAYSPVQE [H6PD_Y449_R453Q], which phosphorylation enrichment is on record?
**A.** The phosphorylation enrichment was 5.44.

**Q.** For AAQNCYKVTNG [TPI1_Y105], which phosphorylation enrichment is on record?
**A.** Its phosphorylation enrichment is 0.356.

**Q.** For RRAVKYLQMVG [AVPR2_Y117_C112R], which phosphorylation enrichment is on record?
**A.** Its phosphorylation enrichment is 0.737.
